In patent US20060029603A1 (GlaxoSmithKline, published 2006):

Assays:
[1] = biological target: T1, GST-human NOGO-A56 (human, UniProt P08515 1-218 = GST); assay: SPR (Biacore 3000), GST-human NOGO-A56 on CM5, antibody as analyte; single experiment
T1 construct: GST-tagged fusion expressed in E. coli BL21 and purified on glutathione-sepharose; coated on ELISA plates or amine-coupled to a CM5 chip; also called hNOGO; recombinant human NOGO
Experimental: (§1) hNOGO (GST-human NOGO-A56) was immobilised to a CM5 chip by primary amine coupling using the Biacore Wizard program designed for targeted immobilisation levels. The CM5 sensor surface was activated by passing a solution of 50 mM N-hydroxy-succinimide (NHS) and 200 mM N-ethyl-N′-dimethylaminopropyl […] (EDC). Then hNOGO in sodium acetate buffer, pH5.0 or pH 4.5, was passed over the chip and immobilised. After immobilisation was complete any still activated esters were blocked by an injection of 1M ethanolamine hydrochloride, pH8.5.
(§2) The anti-NOGO mAbs were diluted down in HBS-EP (10 mM HEPES, pH 7.4, 150 mM NaCl, 3 mM EDTA, and 0.005% P-20 surfactant) and binding studies were carried out at range of defined antibody concentrations. All runs were referenced against a blanked sensor surface (one that had been activated and blocked as described earlier but had no addition of ligand). Analysis of binding was carried out using the BIAevaluation kinetic analysis software version 4.1. Biacore analysis of other antibodies of the invention essentially followed the same protocol as described herein.

[2] = biological target: T1, GST-human NOGO-A56; assay: SPR (Biacore) off-rate ranking, CHO-K1 transient supernatant over GST-human NOGO-A56 chip; single experiment
Experimental: as §1
The hNOGO chip was prepared as for kinetic analysis. Cell supernatants where taken directly from transient transfections of CHO-K1 cells. These were passed directly over the sensor surface and the interaction measured. A mock transfected cell supernatant was used for double referencing to remove any artefacts due to the tissue culture media. All runs were referenced against a blanked sensor surface (one that had been activated and blocked as described earlier but had no addition of ligand). Analysis of binding was carried out using the BIAevaluation kinetic analysis software version 4.1.

[3] = biological target: T1, GST-human NOGO-A56; assay: SPR (Biacore 3000), GST-human NOGO-A56 amine-coupled to CM5, antibody as analyte; mean (SD) of four experiments
Experimental: (§3) The binding kinetics of the anti-NOGO monoclonal antibody (mAb) to recombinantly expressed human NOGO-A (GST-human NOGO-A56) was analysed using the Biacore3000 biosensor. The hNOGO-A chip was prepared as follows:
as §1, §2

[4] = biological target: T1, GST-human NOGO-A56; assay: SPR (Biacore 3000), GST-human NOGO-A56 on CM5, antibody as analyte; single experiment; remark: listed apart in the source
Experimental: as §3, §1, §2

T1 sequence (P08515 1-218, tags or fused parts left off): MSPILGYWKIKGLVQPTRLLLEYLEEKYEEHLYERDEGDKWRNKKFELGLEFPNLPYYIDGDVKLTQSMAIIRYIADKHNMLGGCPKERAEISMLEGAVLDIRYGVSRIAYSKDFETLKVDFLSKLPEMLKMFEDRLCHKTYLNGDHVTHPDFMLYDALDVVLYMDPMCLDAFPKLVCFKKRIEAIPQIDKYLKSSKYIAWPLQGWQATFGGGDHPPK

B1: H6L6 (antibody, human IgG1, kappa, V domains shown)
VH: QVQLVQSGAEVKKPGASVKVSCKASGYTFTSYWMHWVRQAPGQGLEWIGNINPSNGGTNYNEKFKSRATMTRDTSTSTAYMELSSLRSEDTAVYYCELGQGYWGQGTLVTVSS
VL: DIVMTQSPLSLPVTPGEPASISCRSSKSLLYKDGKTYLNWFLQRPGQSPQLLIYLMSTRASGVPDRFSGSGSGTDFTLKISRVEAEDVGVYYCQQLVEYPLTFGGGTKVEIKR
Kd [1]: 21.4 nM
koff [1]: 0.0254 s⁻¹
kon [1]: 1.2e+06 M⁻¹ s⁻¹

B2: H5L6 (antibody, human IgG1, kappa, V domains shown)
VH: QVQLVQSGAEVKKPGASVKVSCKASGYTFTSYWMHWVRQAPGQGLEWMGNINPSNGGTNYNEKFKSRVTMTRDTSTSTAYMELSSLRSEDTAVYYCELGQGYWGQGTLVTVSS
VL: DIVMTQSPLSLPVTPGEPASISCRSSKSLLYKDGKTYLNWFLQRPGQSPQLLIYLMSTRASGVPDRFSGSGSGTDFTLKISRVEAEDVGVYYCQQLVEYPLTFGGGTKVEIKR
Kd [1]: 30.3 nM
koff [1]: 0.047 s⁻¹
kon [1]: 1.5e+06 M⁻¹ s⁻¹

B3: H10L13 (antibody, V domains shown)
VH: QVQLVQSGAEVKKPGASVKLSCKASGYTFTSYWMHWVKQAPGQGLEWIGNINPSNGGTNYNEKFKSRATLTVDKSTSTAYMELSSLRSEDTAVYYCELGQGYWGQGTLVTVSS
VL: DIVMTQSPLSLPVTLGQPASISCRSSKSLLYKDGKTYLNWFQQRPGQSPQLLIYLMSTRASGVPDRFSGGGSGTDFTLKISRVEAEDVGVYYCQQLVEYPLTFGQGTKLEIK
Kd [1]: 12.9 nM
koff [1]: 0.0212 s⁻¹
kon [1]: 1.64e+06 M⁻¹ s⁻¹

B4: H6L14 (antibody, human IgG1, kappa)
heavy: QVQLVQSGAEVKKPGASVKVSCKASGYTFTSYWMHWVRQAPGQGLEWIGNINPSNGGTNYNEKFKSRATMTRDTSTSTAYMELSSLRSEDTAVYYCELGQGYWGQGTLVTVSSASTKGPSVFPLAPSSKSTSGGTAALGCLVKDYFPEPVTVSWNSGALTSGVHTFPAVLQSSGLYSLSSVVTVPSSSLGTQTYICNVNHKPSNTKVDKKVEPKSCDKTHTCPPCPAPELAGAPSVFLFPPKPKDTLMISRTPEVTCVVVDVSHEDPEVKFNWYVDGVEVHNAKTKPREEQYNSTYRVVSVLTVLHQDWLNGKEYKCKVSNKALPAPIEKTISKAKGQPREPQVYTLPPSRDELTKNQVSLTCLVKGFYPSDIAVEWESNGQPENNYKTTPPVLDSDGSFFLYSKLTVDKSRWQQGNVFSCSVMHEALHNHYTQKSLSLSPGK
light: DIVMTQSPLSLPVTLGQPASISCRSSKSLLYKDGKTYLNWFLQRPGQSPQLLIYLMSTRASGVPDRFSGGGSGTDFTLKISRVEAEDVGVYYCQQLVEYPLTFGQGTKLEIKRTVAAPSVFIFPPSDEQLKSGTASVVCLLNNFYPREAKVQWKVDNALQSGNSQESVTEQDSKDSTYSLSSTLTLSKADYEKHKVYACEVTHQGLSSPVTKSFNRGEC
notes: Tested as CHO-K1 supernatant
koff [2]: 0.0457 s⁻¹

B5: H6L16 (antibody, human IgG1, kappa)
heavy: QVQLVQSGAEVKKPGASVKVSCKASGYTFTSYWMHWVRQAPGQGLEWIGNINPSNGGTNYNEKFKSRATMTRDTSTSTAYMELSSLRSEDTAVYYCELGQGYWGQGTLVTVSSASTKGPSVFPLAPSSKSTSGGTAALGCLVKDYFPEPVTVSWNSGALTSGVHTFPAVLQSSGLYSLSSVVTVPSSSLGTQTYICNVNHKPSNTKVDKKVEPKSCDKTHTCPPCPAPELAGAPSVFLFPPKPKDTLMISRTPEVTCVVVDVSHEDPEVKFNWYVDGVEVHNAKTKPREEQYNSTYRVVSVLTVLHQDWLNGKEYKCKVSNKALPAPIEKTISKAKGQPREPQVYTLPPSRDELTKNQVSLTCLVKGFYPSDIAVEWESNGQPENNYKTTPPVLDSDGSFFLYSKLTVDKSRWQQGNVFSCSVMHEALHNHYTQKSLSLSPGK
light: DIVMTQSPLSNPVTLGQPVSISCRSSKSLLYKDGKTYLNWFLQRPGQSPQLLIYLMSTRASGVPDRFSGGGSGTDFTLKISRVEAEDVGVYYCQQLVEYPLTFGQGTKLEIKRTVAAPSVFIFPPSDEQLKSGTASVVCLLNNFYPREAKVQWKVDNALQSGNSQESVTEQDSKDSTYSLSSTLTLSKADYEKHKVYACEVTHQGLSSPVTKSFNRGEC
notes: Tested as CHO-K1 supernatant
koff [2]: 0.0114 s⁻¹

B6: H18L13 (antibody, human IgG1, kappa, V domains shown)
VH: QVQLVQSGAEVVKPGASVKLSCKASGYTFTSYWMHWVKQRPGQGLEWIGNINPSNGGTNYNEKFKSKATLTVDKSSSTAYMELSSLRSEDSAVYYCELGQGYWGQGTLVTVSS
VL: DIVMTQSPLSLPVTLGQPASISCRSSKSLLYKDGKTYLNWFQQRPGQSPQLLIYLMSTRASGVPDRFSGGGSGTDFTLKISRVEAEDVGVYYCQQLVEYPLTFGQGTKLEIKR
notes: Tested as CHO-K1 supernatant
koff [2]: 0.00907 s⁻¹

B7: H14L13 (antibody, human IgG1, kappa, V domains shown)
VH: QVQLVQSGAEVVKPGASVKLSCKASGYTFTSYWMHWVKQAPGQGLEWIGNINPSNGGTNYNEKFKSRATLTRDTSTSTAYMELSSLRSEDTAVYYCELGQGYWGQGTLVTVSS
VL: DIVMTQSPLSLPVTLGQPASISCRSSKSLLYKDGKTYLNWFQQRPGQSPQLLIYLMSTRASGVPDRFSGGGSGTDFTLKISRVEAEDVGVYYCQQLVEYPLTFGQGTKLEIKR
notes: Tested as CHO-K1 supernatant
koff [2]: 0.0138 s⁻¹

B8: H17L16 (antibody, human IgG1, kappa)
heavy: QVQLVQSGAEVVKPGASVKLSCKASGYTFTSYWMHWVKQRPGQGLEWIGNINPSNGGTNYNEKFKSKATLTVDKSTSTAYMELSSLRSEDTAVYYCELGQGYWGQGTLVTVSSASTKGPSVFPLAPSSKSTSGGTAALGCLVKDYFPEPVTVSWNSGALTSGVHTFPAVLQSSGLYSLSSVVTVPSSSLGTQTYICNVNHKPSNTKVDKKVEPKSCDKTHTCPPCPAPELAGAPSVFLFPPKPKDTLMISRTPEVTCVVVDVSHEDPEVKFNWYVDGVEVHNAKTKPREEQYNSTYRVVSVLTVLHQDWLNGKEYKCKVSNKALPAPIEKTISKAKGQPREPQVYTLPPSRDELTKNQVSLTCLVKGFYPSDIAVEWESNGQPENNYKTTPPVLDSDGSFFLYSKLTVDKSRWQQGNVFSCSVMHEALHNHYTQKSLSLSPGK
light: DIVMTQSPLSNPVTLGQPVSISCRSSKSLLYKDGKTYLNWFLQRPGQSPQLLIYLMSTRASGVPDRFSGGGSGTDFTLKISRVEAEDVGVYYCQQLVEYPLTFGQGTKLEIKRTVAAPSVFIFPPSDEQLKSGTASVVCLLNNFYPREAKVQWKVDNALQSGNSQESVTEQDSKDSTYSLSSTLTLSKADYEKHKVYACEVTHQGLSSPVTKSFNRGEC
notes: Humanised 2A10
Kd [3]: 1.82 nM
koff [3]: 0.0061 s⁻¹
kon [3]: 3.38e+06 M⁻¹ s⁻¹

B9: H700L11 (antibody, human IgG1, kappa, V domains shown)
VH: QVQLVQSGAEVKKPGASVKVSCKASGYTFTSYWMHWVRQAPGQGLEWIGNINPSNGGTNYNEKFKSRATLTVDKSTSTAYMELSSLRSEDTAVYYCELGQGYWGQGTLVTVSS
VL: DIVITQSPLSLPVTLGQPASISCRSSKSLLYKDGKTYLNWFQQRPGQSPQLLIYLMSTRASGVPDRFSGGGSGTDFTLKISRVEAEDVGVYYCQQLVEYPLTFGQGTKLEIKR
Kd [1]: 19.4 nM
koff [1]: 0.0233 s⁻¹
kon [1]: 1.19e+06 M⁻¹ s⁻¹

B10: H15L16 (antibody, human IgG1, kappa, V domains shown)
VH: QVQLVQSGAEVVKPGASVKLSCKASGYTFTSYWMHWVKQRPGQGLEWIGNINPSNGGTNYNEKFKSKATLTVDTSSSTAYMELSSLRSEDSAVYYCELGQGYWGQGTLVTVSS
VL: DIVMTQSPLSNPVTLGQPVSISCRSSKSLLYKDGKTYLNWFLQRPGQSPQLLIYLMSTRASGVPDRFSGGGSGTDFTLKISRVEAEDVGVYYCQQLVEYPLTFGQGTKLEIKR
notes: Tested as CHO-K1 supernatant
koff [2]: 0.00604 s⁻¹

B11: H14L18 (antibody, human IgG1, kappa, V domains shown)
VH: QVQLVQSGAEVVKPGASVKLSCKASGYTFTSYWMHWVKQAPGQGLEWIGNINPSNGGTNYNEKFKSRATLTRDTSTSTAYMELSSLRSEDTAVYYCELGQGYWGQGTLVTVSS
VL: DIVMTQDPLSNPVTLGQPVSISCRSSKSLLYKDGKTYLNWFLQRPGQSPQLLIYLMSTRASGVSDRFSGSGSGTDFTLKISRVEAEDVGVYYCQQLVEYPLTFGQGTKLEIKR
Kd [4]: 3.6 nM
koff [4]: 0.00869 s⁻¹
kon [4]: 2.41e+06 M⁻¹ s⁻¹
koff [2]: 0.00835 s⁻¹

B12: HcL11 (antibody, human IgG1, kappa)
heavy: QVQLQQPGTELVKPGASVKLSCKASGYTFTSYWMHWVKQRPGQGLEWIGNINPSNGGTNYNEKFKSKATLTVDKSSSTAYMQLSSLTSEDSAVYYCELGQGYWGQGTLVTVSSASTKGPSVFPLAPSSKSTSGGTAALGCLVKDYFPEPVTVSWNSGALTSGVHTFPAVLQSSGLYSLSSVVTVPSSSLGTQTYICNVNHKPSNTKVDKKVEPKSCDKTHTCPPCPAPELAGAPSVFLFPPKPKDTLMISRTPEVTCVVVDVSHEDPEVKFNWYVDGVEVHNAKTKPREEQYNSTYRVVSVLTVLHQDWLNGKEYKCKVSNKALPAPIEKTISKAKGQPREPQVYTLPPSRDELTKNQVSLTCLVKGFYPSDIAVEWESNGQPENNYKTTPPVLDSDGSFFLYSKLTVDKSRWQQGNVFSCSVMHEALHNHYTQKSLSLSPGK
light: DIVITQSPLSLPVTLGQPASISCRSSKSLLYKDGKTYLNWFQQRPGQSPQLLIYLMSTRASGVPDRFSGGGSGTDFTLKISRVEAEDVGVYYCQQLVEYPLTFGQGTKLEIKRTVAAPSVFIFPPSDEQLKSGTASVVCLLNNFYPREAKVQWKVDNALQSGNSQESVTEQDSKDSTYSLSSTLTLSKADYEKHKVYACEVTHQGLSSPVTKSFNRGEC
notes: Chimeric heavy chain Hc paired with humanised light chain L11; The pairing is read from the name
Kd [1]: 3.55 nM
koff [1]: 0.0134 s⁻¹
kon [1]: 3.78e+06 M⁻¹ s⁻¹

B13: H6L15 (antibody, human IgG1, kappa, V domains shown)
VH: QVQLVQSGAEVKKPGASVKVSCKASGYTFTSYWMHWVRQAPGQGLEWIGNINPSNGGTNYNEKFKSRATMTRDTSTSTAYMELSSLRSEDTAVYYCELGQGYWGQGTLVTVSS
VL: DIVMTQSPLSLPVTLGQPASISCRSSKSLLYKDGKTYLNWFLQRPGQSPQLLIYLMSTRASGVSDRFSGGGSGTDFTLKISRVEAEDVGVYYCQQLVEYPLTFGQGTKLEIKR
notes: Tested as CHO-K1 supernatant
koff [2]: 0.0211 s⁻¹

B14: H6L17 (antibody, human IgG1, kappa, V domains shown)
VH: QVQLVQSGAEVKKPGASVKVSCKASGYTFTSYWMHWVRQAPGQGLEWIGNINPSNGGTNYNEKFKSRATMTRDTSTSTAYMELSSLRSEDTAVYYCELGQGYWGQGTLVTVSS
VL: DIVMTQDPLSLPVTLGQPASISCRSSKSLLYKDGKTYLNWFQQRPGQSPQLLIYLMSTRASGVSDRFSGSGSGTDFTLKISRVEAEDVGVYYCQQLVEYPLTFGQGTKLEIKR
notes: Tested as CHO-K1 supernatant
koff [2]: 0.0158 s⁻¹

B15: HcL13 (antibody, human IgG1, kappa)
heavy: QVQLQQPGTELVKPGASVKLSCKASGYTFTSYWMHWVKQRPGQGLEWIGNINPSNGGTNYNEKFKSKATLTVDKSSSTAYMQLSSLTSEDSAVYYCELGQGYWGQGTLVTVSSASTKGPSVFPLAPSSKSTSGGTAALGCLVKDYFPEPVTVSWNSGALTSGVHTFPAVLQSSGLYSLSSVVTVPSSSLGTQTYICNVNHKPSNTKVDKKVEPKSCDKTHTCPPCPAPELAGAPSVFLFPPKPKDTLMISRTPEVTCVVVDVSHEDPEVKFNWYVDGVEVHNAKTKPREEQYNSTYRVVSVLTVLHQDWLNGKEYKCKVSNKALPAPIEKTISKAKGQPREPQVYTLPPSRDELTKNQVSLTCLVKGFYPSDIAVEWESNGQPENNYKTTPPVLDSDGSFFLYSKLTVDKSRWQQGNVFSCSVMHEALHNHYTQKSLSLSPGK
light: DIVMTQSPLSLPVTLGQPASISCRSSKSLLYKDGKTYLNWFQQRPGQSPQLLIYLMSTRASGVPDRFSGGGSGTDFTLKISRVEAEDVGVYYCQQLVEYPLTFGQGTKLEIKRTVAAPSVFIFPPSDEQLKSGTASVVCLLNNFYPREAKVQWKVDNALQSGNSQESVTEQDSKDSTYSLSSTLTLSKADYEKHKVYACEVTHQGLSSPVTKSFNRGEC
notes: Chimeric heavy chain Hc paired with humanised light chain L13; The pairing is read from the name
Kd [1]: 1.98 nM
koff [1]: 0.00938 s⁻¹
kon [1]: 4.8e+06 M⁻¹ s⁻¹
